Source: patent US20070020327A1
Values belong to the binder of their own block, whether it stands above or below them.

Experiments:
[1] = molecular target: HLA-A*0201 (human); experiment: competitive inhibition of 125I-labelled standard peptide binding to purified HLA
[2] = molecular target: HLA-A*6802 (human); experiment: as above
[3] = molecular target: HLA-A*0206 (human); experiment: competitive inhibition of 125I-labelled standard peptide binding to purified HLA, gel filtration; ratio = IC50 standard / IC50 test peptide
[4] = molecular target: HLA-A*0203 (human); experiment: as above
[5] = molecular target: HLA-A*0201 (human); experiment: as above
[6] = molecular target: HLA-A*1101 (human); experiment: competition with 125I-labelled standard peptide for purified HLA-A*1101, gel filtration; standard 940.06 [..] (6.0 nM)
[7] = molecular target: HLA-A*0206 (human); experiment: competition with 125I-labelled standard peptide for purified HLA, gel filtration; ratio = IC50 standard / IC50 test peptide; conditions: remark: other sources report otherwise
[8] = molecular target: HLA-A*0203 (human); experiment: as above; conditions: remark: other sources report otherwise
[9] = molecular target: HLA-A*0206 (human); experiment: competition with 125I-labeled probe peptide for purified HLA, gel filtration
[10] = molecular target: HLA-A*0203 (human); experiment: as above
[11] = molecular target: HLA-A*0202 (human); experiment: as above
[12] = molecular target: HLA-A*6802 (human); experiment: as above
[13] = molecular target: HLA-A*1101 (human); experiment: competition with 125I-labelled standard peptide for purified HLA-A*1101, gel filtration; ratio to the A*1101 standard peptide 940.06 [..] (6.0 nM)
[14] = molecular target: HLA-A*0301 (human); experiment: competition with 125I-labelled standard peptide for purified HLA-A*0301, gel filtration
[15] = molecular target: HLA-A*6802 (human); experiment: competition with 125I standard peptide for purified HLA; gel filtration
[16] = molecular target: HLA-A*6802 (human); experiment: inhibition of 125I probe peptide binding to purified HLA, gel filtration; ratio = IC50 standard/IC50 test; conditions: remark: other sources report otherwise
[17] = molecular target: HLA-A*0301 (purified HLA class I molecule) (human); experiment: competition binding assay with purified HLA-A*0301; inhibition of 125I-labelled standard peptide 941.12 ([..], 11 nM), gel filtration
[18] = molecular target: HLA-A*0202 (human); experiment: competition binding to purified HLA, 125I-labelled standard peptide, gel filtration; ratio = IC50 standard / IC50 test peptide
[19] = molecular target: HLA-A*0206 (human); experiment: competitive inhibition of 125I-labelled standard peptide binding to purified HLA
[20] = molecular target: HLA-A*0203 (human); experiment: as above
[21] = molecular target: HLA-A*0202 (human); experiment: as above
[22] = molecular target: HLA-A*0206 (human); experiment: competition with 125I-labelled standard peptide 941.01 for purified HLA-A*0206, gel filtration
[23] = molecular target: HLA-A*6802 (human); experiment: competition with 125I-labelled standard peptide 1072.34 for purified HLA-A*6802, gel filtration
[24] = molecular target: HLA-A*0201 (human); experiment: competition with 125I-labelled standard peptide 941.01 for purified HLA-A*0201, gel filtration
[25] = molecular target: HLA-A*0202 (human); experiment: competition with 125I-labelled standard peptide 941.01 for purified HLA-A*0202, gel filtration
[26] = molecular target: HLA-A*0201 (human); experiment: competition with 125I-labeled probe peptide for purified HLA, gel filtration
[27] = molecular target: HLA-A*0202 (human); experiment: competition for purified HLA with 125I-labelled standard peptide 941.01 [..] as competitor, gel filtration; conditions: remark: other sources report otherwise; scale: ratio
[28] = molecular target: HLA-A*0101 (human); experiment: competition with 125I-labelled standard peptide for purified HLA-A*0101, gel filtration
[29] = molecular target: HLA-A*0203 (human); experiment: competition with 125I standard peptide for purified HLA; gel filtration
[30] = molecular target: HLA-A*0202 (human); experiment: as above
[31] = molecular target: HLA-A*0201 (human); experiment: as above
[32] = molecular target: HLA-A*0202 (human); experiment: inhibition of 125I probe peptide binding to purified HLA, gel filtration; ratio = IC50 standard/IC50 test; conditions: remark: other sources report otherwise
[33] = molecular target: HLA-A*0201 (human); experiment: as above; conditions: remark: other sources report otherwise
[34] = molecular target: HLA-A*0206 (human); experiment: competition for purified HLA with 125I-labelled standard peptide 941.01 [..] as competitor, gel filtration; conditions: scale: ratio
[35] = molecular target: HLA-A*0203 (human); experiment: as above; conditions: scale: ratio
[36] = molecular target: HLA-A*0201 (human); experiment: as above; conditions: scale: ratio
[37] = molecular target: HLA-A*0206 (human); experiment: competition with 125I standard peptide for purified HLA; gel filtration
[38] = molecular target: HLA-A*0301 (human); experiment: competition with 125I-labelled standard peptide for purified HLA, gel filtration; conditions: scale: ratio
[39] = molecular target: HLA-A*1101 (human); experiment: as above; conditions: scale: ratio
[40] = remark: other sources report otherwise

IC50 [1, 40]: 200 nM
IC50 [2, 40]: 5000 nM
Binder: LMLLRLSEPA (modifications not checked) [Peptide 63.0014, … (PSA.117)]

binding affinity ratio [3]: 0.0003
binding affinity ratio [4]: 0.0003
binding affinity ratio [5]: -0.0001
Binder: VLGLPTQEPAL (modifications not checked) [… (Kallikrein, position 138)]

binding affinity ratio (IC50 of standard peptide / IC50 of test peptide) [6]: 0.0008
Binder: QDLFGIWSK (modifications not checked) [PAP 200 …]

binding affinity ratio [3]: 0.0001
binding affinity ratio [4]: 0.0001
binding affinity ratio [5]: 0.0002
Binder: VLTAAHCL (modifications not checked) [VLTAAHCL (Kallikrein, position 60)]

binding affinity ratio (IC50 of standard peptide / IC50 of test peptide) [6]: 0.0002
Binder: PSKAWGEVKR (modifications not checked) [PSM 721 …]

binding affinity ratio (ratio to standard peptide) [7]: 0.0005
binding affinity ratio (ratio to standard peptide) [8]: 0.02
Binder: QVAVYSHGWA (modifications not checked) [Kallikrein (hK2) peptide …, position 39, 10 amino acids]

IC50 [9]: 7.6 nM
IC50 [10]: 1.7 nM
IC50 [11]: 0.8 nM
IC50 [12]: 195 nM
Binder: MMNDQLMFL (modifications not checked) [Peptide 1126.01 … (PSM.663)]

binding affinity ratio (IC50 of standard peptide / IC50 of test peptide) [13]: 0.0002
binding affinity ratio (IC50 of standard peptide / IC50 of test peptide) [14]: 0.0006
Binder: SLLSLYGIH (modifications not checked) [… (PAP, position 242)]

IC50 [15, 40]: 6670 nM
Binder: KVTEFMLCV (modifications not checked) [Peptide 1418.21 … (HuK2.191.V9)]

binding affinity ratio [16]: -0.0001
Binder: ALSVGCTGA (modifications not checked) [… (Kallikrein, position 9)]

binding affinity ratio (IC50 of standard peptide / IC50 of test peptide) [6, 40]: 0.031
Binder: RAVCGGVLVH (modifications not checked) [PSA 43 …]

binding affinity ratio (IC50 of standard peptide / IC50 of test peptide) (ratio to standard peptide) [17]: 0.0006
Binder: DVLLSYPNK (modifications not checked) [PSM peptide … (position 114, 9 amino acids)]

binding affinity ratio [18]: 0.0001
Binder: DTGQRVPV (modifications not checked) [DTGQRVPV (Kallikrein, position 85, 8 amino acids)]

IC50 [19]: 65 nM
IC50 [20]: 18 nM
IC50 [21]: 3 nM
IC50 [1]: 6.8 nM
Binder: FLTLSVTWIGV (modifications not checked) [Peptide 63.0186, … (PSA.3.V11)]

binding affinity ratio (IC50 of standard peptide / IC50 of test peptide) (ratio to standard peptide) [17]: 0.0001
Binder: DTFPTDPIK (modifications not checked) [PAP peptide … (position 51, 9 amino acids)]

binding affinity ratio (IC50 of standard peptide / IC50 of test peptide) [22]: -0.0001
binding affinity ratio (IC50 of standard peptide / IC50 of test peptide) [23]: -0.0001
binding affinity ratio (IC50 of standard peptide / IC50 of test peptide) [24]: -0.0001
binding affinity ratio (IC50 of standard peptide / IC50 of test peptide) [25]: 0.0005
Binder: RLSEPAKI (modifications not checked) [RLSEPAKI (Kallikrein, position 125)]

binding affinity ratio [18]: 0.0003
Binder: DAVKVMDL (modifications not checked) [DAVKVMDL (PSA, position 130, 8 amino acids)]

IC50 [9]: 82 nM
IC50 [10]: 44 nM
IC50 [11]: 27 nM
IC50 [26]: 238 nM
IC50 [12]: 258 nM
Binder: ATFDIESKV (modifications not checked) [Peptide 1418.30 … (PSM.711.T2)]

binding affinity ratio [27]: 0.05
Binder: IALSVGCTGA (modifications not checked) [… (Kallikrein position 8, 10-mer)]

IC50 [19]: 5.6 nM
IC50 [20]: 12 nM
IC50 [21]: 2.9 nM
IC50 [1]: 10 nM
IC50 [2]: 3.5 nM
Binder: LVCNGVLQGV (modifications not checked) [Peptide 1418.55, … (PSA.213.V10)]

IC50 [19, 40]: 712 nM
IC50 [20, 40]: 40 nM
IC50 [21, 40]: 4.9 nM
IC50 [2, 40]: 229 nM
Binder: TLSVTWIGV (modifications not checked) [Peptide 60.0217, … (PSA.5.V9)]

binding affinity ratio (IC50 of standard peptide / IC50 of test peptide) [13]: 0.0002
binding affinity ratio (IC50 of standard peptide / IC50 of test peptide) [28]: 0.0002
Binder: RNETQHEPY (modifications not checked) [… (PAP, position 332)]

IC50 [29]: 17 nM
IC50 [30]: 1.8 nM
IC50 [31]: 25 nM
IC50 [15]: 60 nM
Binder: LLWQPIPVHV (modifications not checked) [Peptide 1419.69 … (PAP.136.V10)]

binding affinity ratio [32]: 0.01
binding affinity ratio [33]: 0.001
Binder: AAHCIRNKSVI (modifications not checked) [… (PSA, position 59)]

binding affinity ratio (IC50 of standard peptide / IC50 of test peptide) (ratio to standard peptide) [17]: 0.0006
Binder: EIASKFSER (modifications not checked) [PSM peptide … (position 641, 9 amino acids)]

IC50 [9]: 57 nM
IC50 [10]: 5 nM
IC50 [11]: 0.4 nM
IC50 [26]: 26 nM
Binder: VLAGGFFLV (modifications not checked) [Peptide 1389.20 … (PSM.27.V9)]

binding affinity ratio [34]: 0.0009
binding affinity ratio [35]: 0.0005
binding affinity ratio [36]: 0.002
Binder: HLLSNDMCA (modifications not checked) [… (Kallikrein position 177, 9-mer)]

IC50 [37]: 5.6 nM
IC50 [29]: 12 nM
IC50 [30]: 2.9 nM
IC50 [31]: 10 nM
IC50 [15]: 3.5 nM
Binder: LVCNGVLQGV (modifications not checked) [Peptide 1418.55 … (HuK2.217.V10)]

binding affinity ratio (IC50 of standard peptide / IC50 of test peptide) [13]: 2
binding affinity ratio [38]: 1
binding affinity ratio [39]: 2
binding affinity ratio (IC50 of standard peptide / IC50 of test peptide) [14]: 1
Binder: SLYESWTKK (modifications not checked) [… (PSM, position 492)]

IC50 [37, 40]: 10 nM
IC50 [29, 40]: 4.3 nM
IC50 [30, 40]: 0.7 nM
IC50 [31, 40]: 5.3 nM
IC50 [15, 40]: 1700 nM
Binder: LLSNDMCARV (modifications not checked) [Peptide 1418.53 … (HuK2.178.V10)]
